From patent US20150218238A1, “TREATING DISEASES BY MODULATING A SPECIFIC ISOFORM OF MKL1” (NOVARTIS FORSCHUNGSSTIFTUNG, ZWEIGNIEDERLASSUNG FRIEDRICH …, priority 2012, published 2015)

System: EcR-293 cells
Experiment: DNA microarray on EcR-293 cells overexpressing MKL1 isoforms
Format: cell-based, human
Conditions: for ACTA2 fold change vs. control / ADAM21 fold change vs. control / AMBN fold change vs. control / CNN2 fold change vs. control / DSEL fold change vs. control / ESRRG fold change vs. control / MKL1 (total) fold change vs. control / MMP16 fold change vs. control / NAP1L3 fold change vs. control / OSTN fold change vs. control / PDGFD fold change vs. control / ROCK1P1 fold change vs. control / RORB fold change vs. control / SLC8A1 fold change vs. control / SPOCK3 fold change vs. control: vs empty pcDNA3 vector
Experimental: DNA microarray EcR-293 cells stably transfected with 1) the empty pcDNA3 vector, 2) 5′UTR-MKL_L, 3) 5′UTR-MKL_S were grown in triplicates. For “untreated” samples, total RNA was extracted from cells in D-MEM/10% FBS. “LPA treated” cells were starved for 16 h in D-MEM/0.3% FBS and subsequently treated with 50 μm LPA for 20 min. RNA was extracted 4 h after treatment. RNA was converted into labeled cRNA and hybridized to Affymetrix Human Gene 1.0 arrays (Affymetrix, Santa Clara, Calif., USA). The procedure for the microarray analysis was as previously described (4). Differences in gene expression were calculated for 2) vs. 1), 3) vs. 1), and 3) vs. 2). • (1) Miralles F et al., Cell, Volume 113, Issue 3, May 2003, 329-342 • (2) Maier S et al., Biochimica et Biophysica Acta (BBA)—Molecular Cell Research, Volume 1783, Issue 6, June 2008, 1150-1162 • (3) Martina et al., The FASEB Journal, Volume 24, Issue 3, March 2010, 778-787 • (4) Asparuhova et al., The FASEB Journal, Volume 25, Issue 10, October 2011, 3477-3488

B1: MKL_S: novel short isoform of human MKL1 (SEQ ID NO:1), stably overexpressed in EcR-293 cells from construct 5′UTR-MKL_S (protein, listed as Homo sapiens)
chain: MTLLEPEMLMMAVQSVLQLKLQQRRTREELVSQGIMPPLKSPAAFHEQRRSLERARTEDYLKRKIRSRPERSELVRMHILEETSAEPSLQAKQLKLKRARLADDLNEKIAQRPGPMELVEKNILPVESSLKEAIIVGQVNYPKVADSSSFDEDSSDALSPEQPASHESQGSVPSPLEARVSEPLLSATSASPTQVVSQLPMGRDSREMLFLAEQPPLPPPPLLPPSLTNGTTIPTAKSTPTLIKQSQPKSASEKSQRSKKAKELKPKVKKLKYHQYIPPDQKQDRGAPPMDSSYAKILQQQQLFLQLQILNQQQQQHHNYQAILPAPPKSAGEALGSSGTPPVRSLSTTNSSSSSGAPGPCGLARQNSTSLTGKPGALPANLDDMKVAELKQELKLRSLPVSGTKTELIERLRAYQDQISPVPGAPKAPAATSILHKAGEVVVAFPAARLSTGPALVAAGLAPAEVVVATVASSGVVKFGSTGSTPPVSPTPSERSLLSTGDENSTPGDTFGEMVTSPLTQLTLQASPLQILVKEEGPRAGSCCLSPGGRAELEGRDKDQMLQEKDKQIEALTRMLRQKQQLVERLKLQLEQEKRAQQPAPAPAPLGTPVKQENSFSSCQLSQQPLGPAHPFNPSLAAPATNHIDPCAVAPGPPSVVVKQEALQPEPEPVPAPQLLLGPQGPSLIKGVAPPTLITDSTGTHLVLTVTNKNADSPGLSSGSPQQPSSQPGSPAPAPSAQMDLEHPLQPLFGTPTSLLKKEPPGYEEAMSQQPKQQENGSSSQQMDDLFDILIQSGEISADFKEPPSLPGKEKPSPKTVCGSPLAAQPSPSAELPQAAPPPPGSPSLPGRLEDFLESSTGLPLLTSGHDGPEPLSLIDDLHSQMLSSTAILDHPPSPMDTSELHFVPEPSSTMGLDLADGHLDSMDWLELSSGGPVLSLAPLSTTAPSLFSTDFLDGHDLQLHWDSCL
ACTA2 fold change MKL_S vs. MKL_L (4 h after LPA treatment): <1.20 fold
ADAM21 fold change MKL_S vs. MKL_L (4 h after LPA treatment): +1.65 (2.95E−05) fold
AMBN fold change MKL_S vs. MKL_L (4 h after LPA treatment): +1.67 (1.04E−03) fold
CNN2 fold change MKL_S vs. MKL_L (4 h after LPA treatment): +1.44 (1.06E−06) fold
DSEL fold change MKL_S vs. MKL_L (4 h after LPA treatment): +1.50 (2.87E−04) fold
ESRRG fold change MKL_S vs. MKL_L (4 h after LPA treatment): <1.20 fold
MKL1 (total) fold change MKL_S vs. MKL_L (4 h after LPA treatment): −1.91 (3.79E−06) fold
MMP16 fold change MKL_S vs. MKL_L (4 h after LPA treatment): +2.54 (1.95E−05) fold
NAP1L3 fold change MKL_S vs. MKL_L (4 h after LPA treatment): +1.49 (1.82E−03) fold
OSTN fold change MKL_S vs. MKL_L (4 h after LPA treatment): +1.92 (1.57E−04) fold
PDGFD fold change MKL_S vs. MKL_L (4 h after LPA treatment): <1.20 fold
ROCK1P1 fold change MKL_S vs. MKL_L (4 h after LPA treatment): +1.60 (1.99E−03) fold
RORB fold change MKL_S vs. MKL_L (4 h after LPA treatment): <1.20 fold
SLC8A1 fold change MKL_S vs. MKL_L (4 h after LPA treatment): −1.31 (1.42E−03) fold
SPOCK3 fold change MKL_S vs. MKL_L (4 h after LPA treatment): 2.18 (2.70E−06) fold
ACTA2 fold change MKL_S vs. MKL_L (untreated cells): <1.20 fold
ADAM21 fold change MKL_S vs. MKL_L (untreated cells): <1.20 fold
AMBN fold change MKL_S vs. MKL_L (untreated cells): +1.73 (5.61E−04) fold
CNN2 fold change MKL_S vs. MKL_L (untreated cells): +1.53 (7.48E−06) fold
DSEL fold change MKL_S vs. MKL_L (untreated cells): +1.51 (1.13E−03) fold
ESRRG fold change MKL_S vs. MKL_L (untreated cells): <1.20 fold
MKL1 (total) fold change MKL_S vs. MKL_L (untreated cells): −1.54 (8.11E−08) fold
MMP16 fold change MKL_S vs. MKL_L (untreated cells): +2.03 (9.27E−06) fold
NAP1L3 fold change MKL_S vs. MKL_L (untreated cells): +1.75 (1.30E−04) fold
OSTN fold change MKL_S vs. MKL_L (untreated cells): +1.90 (2.17E−04) fold
PDGFD fold change MKL_S vs. MKL_L (untreated cells): <1.20 fold
ROCK1P1 fold change MKL_S vs. MKL_L (untreated cells): <1.20 fold
RORB fold change MKL_S vs. MKL_L (untreated cells): <1.20 fold
SLC8A1 fold change MKL_S vs. MKL_L (untreated cells): <1.20 fold
SPOCK3 fold change MKL_S vs. MKL_L (untreated cells): +1.97 (6.82E−06) fold
ACTA2 fold change vs. control (4 h after LPA treatment): +2.02 (2.99E−05) fold
ADAM21 fold change vs. control (4 h after LPA treatment): +1.38 (3.69E−06) fold
AMBN fold change vs. control (4 h after LPA treatment): +5.14 (1.97E−07) fold
CNN2 fold change vs. control (4 h after LPA treatment): +1.67 (6.37E−08) fold
DSEL fold change vs. control (4 h after LPA treatment): +2.33 (1.17E−06) fold
ESRRG fold change vs. control (4 h after LPA treatment): +1.93 (4.52E−08) fold
MKL1 (total) fold change vs. control (4 h after LPA treatment): +2.41 (3.56E−07) fold
MMP16 fold change vs. control (4 h after LPA treatment): +5.86 (1.39E−07) fold
NAP1L3 fold change vs. control (4 h after LPA treatment): +2.78 (2.44E−06) fold
OSTN fold change vs. control (4 h after LPA treatment): +2.23 (3.48E−05) fold
PDGFD fold change vs. control (4 h after LPA treatment): +1.61 (8.28E−06) fold
ROCK1P1 fold change vs. control (4 h after LPA treatment): +1.53 (3.63E−03) fold
RORB fold change vs. control (4 h after LPA treatment): +1.46 (1.34E−04) fold
SLC8A1 fold change vs. control (4 h after LPA treatment): +1.67 (1.71E−05) fold
SPOCK3 fold change vs. control (4 h after LPA treatment): +5.04 (8.54E−09) fold
ACTA2 fold change vs. control (untreated cells): +2.30 (1.88E−07) fold
ADAM21 fold change vs. control (untreated cells): −1.21 (1.63E−02) fold
AMBN fold change vs. control (untreated cells): <1.20 fold
CNN2 fold change vs. control (untreated cells): +2.53 (1.91E−08) fold
DSEL fold change vs. control (untreated cells): +2.43 (5.20E−06) fold
ESRRG fold change vs. control (untreated cells): +2.37 (2.34E−08) fold
MKL1 (total) fold change vs. control (untreated cells): +3.70 (1.19E−11) fold
MMP16 fold change vs. control (untreated cells): +2.98 (3.46E−07) fold
NAP1L3 fold change vs. control (untreated cells): +2.68 (1.98E−06) fold
OSTN fold change vs. control (untreated cells): <1.20 fold
PDGFD fold change vs. control (untreated cells): +2.01 (4.75E−05) fold
ROCK1P1 fold change vs. control (untreated cells): <1.20 fold
RORB fold change vs. control (untreated cells): +1.96 (2.76E−07) fold
SLC8A1 fold change vs. control (untreated cells): +1.70 (5.75E−07) fold
SPOCK3 fold change vs. control (untreated cells): +3.21 (1.08E−07) fold

B2: MKL_L: published long isoform of human MKL1 (SEQ ID NO:3), stably overexpressed in EcR-293 cells from construct 5′UTR-MKL_L (protein, listed as Homo sapiens)
chain: LPPSVIAVNGMDGGGAGENDDEPVLVSLSAAPSPQSEAVANELQELSLQPELTLGLHPGRNPNLPPLSERKNVLQLKLQQRRTREELVSQGIMPPLKSPAAFHEQRRSLERARTEDYLKRKIRSRPERSELVRMHILEETSAEPSLQAKQLKLKRARLADDLNEKIAQRPGPMELVEKNILPVESSLKEAIIVGQVNYPKVADSSSFDEDSSDALSPEQPASHESQGSVPSPLEARVSEPLLSATSASPTQVVSQLPMGRDSREMLFLAEQPPLPPPPLLPPSLTNGTTIPTAKSTPTLIKQSQPKSASEKSQRSKKAKELKPKVKKLKYHQYIPPDQKQDRGAPPMDSSYAKILQQQQLFLQLQILNQQQQQHHNYQAILPAPPKSAGEALGSSGTPPVRSLSTTNSSSSSGAPGPCGLARQNSTSLTGKPGALPANLDDMKVAELKQELKLRSLPVSGTKTELIERLRAYQDQISPVPGAPKAPAATSILHKAGEVVVAFPAARLSTGPALVAAGLAPAEVVVATVASSGVVKFGSTGSTPPVSPTPSERSLLSTGDENSTPGDTFGEMVTSPLTQLTLQASPLQILVKEEGPRAGSCCLSPGGRAELEGRDKDQMLQEKDKQIEALTRMLRQKQQLVERLKLQLEQEKRAQQPAPAPAPLGTPVKQENSFSSCQLSQQPLGPAHPFNPSLAAPATNHIDPCAVAPGPPSVVVKQEALQPEPEPVPAPQLLLGPQGPSLIKGVAPPTLITDSTGTHLVLTVTNKNADSPGLSSGSPQQPSSQPGSPAPAPSAQMDLEHPLQPLFGTPTSLLKKEPPGYEEAMSQQPKQQENGSSSQQMDDLFDILIQSGEISADFKEPPSLPGKEKPSPKTVCGSPLAAQPSPSAELPQAAPPPPGSPSLPGRLEDFLESSTGLPLLTSGHDGPEPLSLIDDLHSQMLSSTAILDHPPSPMDTSELHFVPEPSSTMGLDLADGHLDSMDWLELSSGGPVLSLAPLSTTAPSLFSTDFLDGHDLQLHWDSCL
ACTA2 fold change vs. control (4 h after LPA treatment): +1.86 (7.22E−05) fold
ADAM21 fold change vs. control (4 h after LPA treatment): −1.36 (8.44E−04) fold
AMBN fold change vs. control (4 h after LPA treatment): +3.09 (3.65E−06) fold
CNN2 fold change vs. control (4 h after LPA treatment): <1.20 fold
DSEL fold change vs. control (4 h after LPA treatment): +1.56 (1.45E−04) fold
ESRRG fold change vs. control (4 h after LPA treatment): +1.71 (2.20E−07) fold
MKL1 (total) fold change vs. control (4 h after LPA treatment): +4.61 (4.29E−09) fold
MMP16 fold change vs. control (4 h after LPA treatment): +2.30 (4.46E−05) fold
NAP1L3 fold change vs. control (4 h after LPA treatment): +1.86 (1.01E−04) fold
OSTN fold change vs. control (4 h after LPA treatment): <1.20 fold
PDGFD fold change vs. control (4 h after LPA treatment): +1.50 (2.62E−05) fold
ROCK1P1 fold change vs. control (4 h after LPA treatment): <1.20 fold
RORB fold change vs. control (4 h after LPA treatment): +1.53 (5.71E−05) fold
SLC8A1 fold change vs. control (4 h after LPA treatment): +2.18 (6.58E−07) fold
SPOCK3 fold change vs. control (4 h after LPA treatment): +2.31 (1.61E−06) fold
ACTA2 fold change vs. control (untreated cells): +2.62 (5.99E−08) fold
ADAM21 fold change vs. control (untreated cells): −1.27 (1.586−02) fold
AMBN fold change vs. control (untreated cells): −1.89 (2.18E−04) fold
CNN2 fold change vs. control (untreated cells): +1.65 (2.35E−06) fold
DSEL fold change vs. control (untreated cells): +1.61 (4.36E−04) fold
ESRRG fold change vs. control (untreated cells): +2.14 (6.11E−08) fold
MKL1 (total) fold change vs. control (untreated cells): +5.68 (1.23E−12) fold
MMP16 fold change vs. control (untreated cells): +1.47 (6.97E−04) fold
NAP1L3 fold change vs. control (untreated cells): +1.54 (7.53E−04) fold
OSTN fold change vs. control (untreated cells): −2.38 (2.56E−05) fold
PDGFD fold change vs. control (untreated cells): +1.93 (7.54E−05) fold
ROCK1P1 fold change vs. control (untreated cells): <1.20 fold
RORB fold change vs. control (untreated cells): +2.27 (5.80E−08) fold
SLC8A1 fold change vs. control (untreated cells): +1.89 (1.37E−07) fold
SPOCK3 fold change vs. control (untreated cells): +1.63 (7.80E−05) fold
